Assay results from patent US11549123B2, “Plant EPSP synthases and methods of use” (PIONEER HI-BRED INTERNATIONAL, INC., priority 2015, dated 2023).

Key:
[1] = tested on: C=C(OP(=O)(O)O)C(=O)O; assay: purified protein, by the assay type; details: other: substrate saturation; Bacterial EPSPS / CP4
Excerpt: There are several practical considerations for accurately estimating (kcat/KM)*KI with the rapid method. […] If inhibition is too little, v0-vi will be small, and the error in the multiplier vi×v0/(v0-vi) will be large. […] High substrate concentration obscures sensitivity to the inhibitor and reduces stringency for capturing improvements in KM.

[2] = substrate: C=C(OP(=O)(O)O)C(=O)O; assay: Substrate saturation kinetic analysis with glyphosate, H6-R61Y; format: biochemical, Zea mays; details: other: substrate saturation
[3] = tested on: maize EPSPS; assay: EPSPS reaction rates at 200 uM PEP and S3P, and at 30 uM substrates with 1 mM glyphosate; format: biochemical, Zea mays; details: Zea ma
Procedure: (§1) EPSPS activity was determined by quantifying the phosphate generated from the EPSPS reaction. Release of inorganic phosphate was coupled to reaction with 2-amino-6-mercapto-7-methylpurine ribonucleoside, catalyzed by purine-nucleoside phosphorylase (M R Webb, Proc. Natl. Acad. Sci. 89:4884-4887, 1992). The absorbance change that occurs was monitored at 360 nm, where the extinction is 11,200 M^−1 cm^−1, with a Spectramax plate reader (Molecular Devices). To determine kinetic parameters, the varied substrate was present at seven concentrations (the eighth being the blank, containing no substrate) ranging from 4 to 400 uM and the unvaried substrate present at saturation. […] Reactions were monitored with a Spectramax plate reader. […] KI was then calculated from the following form of the Michaelis-Menten equation for competitive inhibition: KI=KM[I]/(KM app−KM) KM approximates the dissociation constant of the enzyme-substrate complex while kcat is the rate of conversion of substrate to product when the substrate concentration is saturating. kcat/KM is a widely accepted parameter for catalytic efficiency when substrate concentration is low (˜KM). […] The parameter kcat/KM×KI is used to quantify both catalytic efficiency and insensitivity and thus the overall fitness of the enzyme. […]

[4] = tested on: Glycine max (93Y21) hairy root; assay: Hairy root growth from transformed soybean cotyledons with or without 25 uM glyphosate; format: cell-based; details: constructs containing the UBQ10 promoter
[5] = substrate: C=C(OP(=O)(O)O)C(=O)O; assay: EPSPS substrate saturation kinetics, maize variant 103V 107G; format: biochemical, Zea mays; details: other: PEP varied; pH 7.0
Procedure: as §1

[6] = substrate: C=C(OP(=O)(O)O)C(=O)O; assay: EPSPS substrate saturation kinetics, maize variant 103L 107T; format: biochemical, Zea mays; details: other: PEP varied; pH 7.0
Procedure: as §1

[7] = substrate: C=C(OP(=O)(O)O)C(=O)O; assay: EPSPS substrate saturation kinetics, maize variant 103S 107N; format: biochemical, Zea mays; details: other: PEP varied; pH 7.0
Procedure: as §1

[8] = substrate: C=C(OP(=O)(O)O)C(=O)O; assay: EPSPS substrate saturation kinetics, maize variant 103G 107W (EPSPS-TGPW); format: biochemical; details: other: PEP varied; pH 7.0
Procedure: as §1

[9] = substrate: C=C(OP(=O)(O)O)C(=O)O; assay: EPSPS substrate saturation kinetics, maize variant 103L 107A; format: biochemical, Zea mays; details: other: PEP varied; pH 7.0
Procedure: as §1

Question: “Bacterial EPSPS (CP4) (Agrobacterium sp. CP4)” was tested. Which Km [1] did it give?
Answer: 15.8 µM

Question: And the kcat [1]?
Answer: 20.32 s⁻¹

B1: Zea mays EPSPS variant Zm-H6 (868-H6) with R61Y (H6-R61Y) (Zea mays; A1R/A3W/A415G/A71Q/D401G/E301S/E390G/G101A/I207L/K83R/L97C/R60Y/T278A/T360S/T440Q/V437R) (protein)
chain: MRGWEEIVLQPIKEISGTVKLPGSKSLSNRILLLAALSEGTTVVDNLLNSEDVHYMLGALYTLGLSVEADKQAKRAVVVGCGGRFPVEDAKEEVQLFCGNAATAMRPLTAAVTAAGGNATYVLDGVPRMRERPIGDLVVGLKQLGADVDCFLGTDCPPVRVNGIGGLPGGKVKLSGSISSQYLSALLMAAPLALGDVEIEIIDKLISLPYVEMTLRLMERFGVKAEHSDSWDRFYIKGGQKYKSPKNAYVEGDASSASYFLAGAAITGGTVTVEGCGTASLQGDVKFAEVLEMMGAKVTWTSTSVTVTGPPREPFGRKHLKAIDVNMNKMPDVAMTLAVVALFADGPTAIRDVASWRVKESERMVAIRTELTKLGASVEEGPDYCIITPPGKLNVTAIDTYGDHRMAMAFSLAACGEVPVTIRDPGCTRKTFPDYFDRLSQFVKN
notes: 868-H6 plus R61Y; E. coli BL21(DE3), Ni-NTA purified
Question: Which results are given for B1?
Answer: Km [2]: 23.6 µM; kcat [2]: 2.08 s⁻¹

B2: 123-C1: maize EPSPS with A2R, A4W, K84R, L98C, G102A, I208L, K243E, E391P, D402G (protein)
chain: MRGWEEIVLQPIKEISGTVKLPGSKSLSNRILLLAALSEGTTVVDNLLNSEDVHYMLGALRTLGLSVEADKAAKRAVVVGCGGRFPVEDAKEEVQLFCGNAATAMRPLTAAVTAAGGNATYVLDGVPRMRERPIGDLVVGLKQLGADVDCFLGTDCPPVRVNGIGGLPGGKVKLSGSISSQYLSALLMAAPLALGDVEIEIIDKLISLPYVEMTLRLMERFGVKAEHSDSWDRFYIKGGQKYESPKNAYVEGDASSASYFLAGAAITGGTVTVEGCGTTSLQGDVKFAEVLEMMGAKVTWTETSVTVTGPPREPFGRKHLKAIDVNMNKMPDVAMTLAVVALFADGPTAIRDVASWRVKETERMVAIRTELTKLGASVEEGPDYCIITPPPKLNVTAIDTYGDHRMAMAFSLAACAEVPVTIRDPGCTRKTFPDYFDVLSTFVKN
modifications: maize clone 123-C1
notes: maize EPSPS with A2R, A4W, K84R, L98C, G102A, I208L, K243E, E391P, D402G
Question: Which results are given for B2?
Answer: Reaction rate, 200 uM, no glyph ([3]; PEP and S3P both at 200 uM, no glyphosate): 516; Reaction rate, 30 uM, 1 mM glyph ([3]; substrates at 30 uM, glyphosate at 1 mM): 94.5; hairy root growth in the presence of 25 uM glyphosate [4]: generated hairy roots

B3: Zea mays EPSPS variant V-G at positions 103-107 (Zea mays; P106G/T102V) (protein)
chain: MAGAEEIVLQPIKEISGTVKLPGSKSLSNRILLLAALSEGTTVVDNLLNSEDVHYMLGALRTLGLSVEADKAAKRAVVVGCGGKFPVEDAKEEVQLFLGNAGVAMRGLTAAVTAAGGNATYVLDGVPRMRERPIGDLVVGLKQLGADVDCFLGTDCPPVRVNGIGGLPGGKVKLSGSISSQYLSALLMAAPLALGDVEIEIIDKLISIPYVEMTLRLMERFGVKAEHSDSWDRFYIKGGQKYKSPKNAYVEGDASSASYFLAGAAITGGTVTVEGCGTTSLQGDVKFAEVLEMMGAKVTWTETSVTVTGPPREPFGRKHLKAIDVNMNKMPDVAMTLAVVALFADGPTAIRDVASWRVKETERMVAIRTELTKLGASVEEGPDYCIITPPEKLNVTAIDTYDDHRMAMAFSLAACAEVPVTIRDPGCTRKTFPDYFDVLSTFVKN
Question: With B3 as the molecule, how does the Km [5] read?
Answer: 133 µM

B4: Zea mays EPSPS variant L-T at positions 103-107 (Zea mays; P106T/T102L) (protein)
chain: MAGAEEIVLQPIKEISGTVKLPGSKSLSNRILLLAALSEGTTVVDNLLNSEDVHYMLGALRTLGLSVEADKAAKRAVVVGCGGKFPVEDAKEEVQLFLGNAGLAMRTLTAAVTAAGGNATYVLDGVPRMRERPIGDLVVGLKQLGADVDCFLGTDCPPVRVNGIGGLPGGKVKLSGSISSQYLSALLMAAPLALGDVEIEIIDKLISIPYVEMTLRLMERFGVKAEHSDSWDRFYIKGGQKYKSPKNAYVEGDASSASYFLAGAAITGGTVTVEGCGTTSLQGDVKFAEVLEMMGAKVTWTETSVTVTGPPREPFGRKHLKAIDVNMNKMPDVAMTLAVVALFADGPTAIRDVASWRVKETERMVAIRTELTKLGASVEEGPDYCIITPPEKLNVTAIDTYDDHRMAMAFSLAACAEVPVTIRDPGCTRKTFPDYFDVLSTFVKN
Question: Which Km [6] does the source give for B4 here?
Answer: 45.8 µM

B5: Zea mays EPSPS variant S-N at positions 103-107 (Zea mays; P106N/T102S) (protein)
chain: MAGAEEIVLQPIKEISGTVKLPGSKSLSNRILLLAALSEGTTVVDNLLNSEDVHYMLGALRTLGLSVEADKAAKRAVVVGCGGKFPVEDAKEEVQLFLGNAGSAMRNLTAAVTAAGGNATYVLDGVPRMRERPIGDLVVGLKQLGADVDCFLGTDCPPVRVNGIGGLPGGKVKLSGSISSQYLSALLMAAPLALGDVEIEIIDKLISIPYVEMTLRLMERFGVKAEHSDSWDRFYIKGGQKYKSPKNAYVEGDASSASYFLAGAAITGGTVTVEGCGTTSLQGDVKFAEVLEMMGAKVTWTETSVTVTGPPREPFGRKHLKAIDVNMNKMPDVAMTLAVVALFADGPTAIRDVASWRVKETERMVAIRTELTKLGASVEEGPDYCIITPPEKLNVTAIDTYDDHRMAMAFSLAACAEVPVTIRDPGCTRKTFPDYFDVLSTFVKN
Question: B5 was tested. Which Km [7] did it give?
Answer: 38.1 µM

B6: Zea mays EPSPS variant G-W at positions 103-107 (EPSPS-TGPW; T103G P107W) (Zea mays; P106W/T102G) (protein)
chain: MAGAEEIVLQPIKEISGTVKLPGSKSLSNRILLLAALSEGTTVVDNLLNSEDVHYMLGALRTLGLSVEADKAAKRAVVVGCGGKFPVEDAKEEVQLFLGNAGGAMRWLTAAVTAAGGNATYVLDGVPRMRERPIGDLVVGLKQLGADVDCFLGTDCPPVRVNGIGGLPGGKVKLSGSISSQYLSALLMAAPLALGDVEIEIIDKLISIPYVEMTLRLMERFGVKAEHSDSWDRFYIKGGQKYKSPKNAYVEGDASSASYFLAGAAITGGTVTVEGCGTTSLQGDVKFAEVLEMMGAKVTWTETSVTVTGPPREPFGRKHLKAIDVNMNKMPDVAMTLAVVALFADGPTAIRDVASWRVKETERMVAIRTELTKLGASVEEGPDYCIITPPEKLNVTAIDTYDDHRMAMAFSLAACAEVPVTIRDPGCTRKTFPDYFDVLSTFVKN
Question: B6 was tested. Which Km [8] did it give?
Answer: 82.2 µM

B7: Zea mays EPSPS variant L-A at positions 103-107 (Zea mays; P106A/T102L) (protein)
chain: MAGAEEIVLQPIKEISGTVKLPGSKSLSNRILLLAALSEGTTVVDNLLNSEDVHYMLGALRTLGLSVEADKAAKRAVVVGCGGKFPVEDAKEEVQLFLGNAGLAMRALTAAVTAAGGNATYVLDGVPRMRERPIGDLVVGLKQLGADVDCFLGTDCPPVRVNGIGGLPGGKVKLSGSISSQYLSALLMAAPLALGDVEIEIIDKLISIPYVEMTLRLMERFGVKAEHSDSWDRFYIKGGQKYKSPKNAYVEGDASSASYFLAGAAITGGTVTVEGCGTTSLQGDVKFAEVLEMMGAKVTWTETSVTVTGPPREPFGRKHLKAIDVNMNKMPDVAMTLAVVALFADGPTAIRDVASWRVKETERMVAIRTELTKLGASVEEGPDYCIITPPEKLNVTAIDTYDDHRMAMAFSLAACAEVPVTIRDPGCTRKTFPDYFDVLSTFVKN
Question: B7 was tested. Which Km [9] did it give?
Answer: 50.6 µM
